Target: T1, PoSP:SGSH^OPT:His
T1 chain: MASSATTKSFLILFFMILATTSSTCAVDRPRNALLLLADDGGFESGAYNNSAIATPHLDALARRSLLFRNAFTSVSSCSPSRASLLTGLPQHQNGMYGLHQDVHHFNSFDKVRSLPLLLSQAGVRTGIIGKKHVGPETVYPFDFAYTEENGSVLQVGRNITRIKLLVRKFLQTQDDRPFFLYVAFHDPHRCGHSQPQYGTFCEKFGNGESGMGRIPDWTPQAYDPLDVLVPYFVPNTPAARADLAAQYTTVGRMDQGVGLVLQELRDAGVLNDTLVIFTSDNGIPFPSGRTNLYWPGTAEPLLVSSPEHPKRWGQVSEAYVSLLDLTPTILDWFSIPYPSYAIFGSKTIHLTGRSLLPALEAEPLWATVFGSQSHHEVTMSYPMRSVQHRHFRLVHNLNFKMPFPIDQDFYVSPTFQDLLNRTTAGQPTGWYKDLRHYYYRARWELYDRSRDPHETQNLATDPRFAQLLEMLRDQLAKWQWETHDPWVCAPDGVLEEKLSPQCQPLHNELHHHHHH

B1: PoSP:SUMF1^OPT:His:KDEL (protein)
chain: MASSATTKSFLILFFMILATTSSTCAVDSQEAGTGAGAGSLAGSCGCGTPQRPGAHGSSAAAHRYSREANAPGPVPGERQLAHSKMVPIPAGVFTMGTDDPQIKQDGEAPARRVTIDAFYMDAYEVSNTEFEKFVNSTGYLTEAEKFGDSFVFEGMLSEQVKTNIQQAVAAAPWWLPVKGANWRHPEGPDSTILHRPDHPVLHVSWNDAVAYCTWAGKRLPTEAEWEYSCRGGLHNRLFPWGNKLQPKGQHYANIWQGEFPVTNTGEDGFQGTAPVDAFPPNGYGLYNIVGNAWEWTSDWWTVHHSVEETLNPKGPPSGKDRVKKGGSYMCHRSYCYRYRCAARSQNTPDSSASNLGFRCAADRLPTMDHHHHHHKDEL
  sulfamidase enzymatic activity: plant-made SGSH (S4 and S12) were enzymatically active only when SUMF1 was co-expressed

Source: patent publication US20220251522
